Kd, koff and kon data for two substances are collected here from paper PMC9606215.

In test [1] the target is complement C3b (UniProt P01024). As to the kind of experiment: SPR; C3b amine-coupled to a CM5 chip; CFB as analyte at 1.0-4.0 μM in 10 mM HEPES pH 7.4, 50 mM NaCl, 3 mM MgCl2, 1 mM CFD, 0.005% surfactant P20 (activated C3 convertase C3bBb formation); two state interaction model. Background: In SPR one partner is held on a chip, and binding of the other changes the refractive index at the surface.

Test [2] has the same target. As to the kind of experiment: SPR; activated C3 convertase C3bBb formation: C3b amine-coupled to a CM5 chip; CFB flowed at 1.0-4.0 uM with complement factor D (1 mM [sic] CFD); 10 mM HEPES pH 7.4, 50 mM NaCl, 3 mM MgCl2, 0.005% surfactant P20; Biacore.
Test [3] shares this target. As to the kind of experiment: SPR; C3b amine-coupled to a CM5 chip; CFB flowed at 0.125-4.0 μM, 30 μl/min; 10 mM HEPES pH 7.4, 50 mM NaCl, 3 mM MgCl2, 0.005% surfactant P20; without CFD (proenzyme C3bB formation); two state interaction model.
For test [4] the target is unchanged. As to the kind of experiment: SPR; proenzyme C3bB formation: C3b amine-coupled to a CM5 chip; CFB flowed at 0.125-4.0 uM, 30 ul/min; 10 mM HEPES pH 7.4, 50 mM NaCl, 3 mM MgCl2, 0.005% surfactant P20; without CFD; Biacore.

On to “complement factor B, R32W variant (32W) (from UniProt P00751 26-764) (natural protein)”, for which the Kd – broadly, the equilibrium constant for the complex coming apart – with complement C3b [1] came out at 318 nM; with complement C3b [3], 2250 nM. Further, the results for the koff with complement C3b [2] and with complement C3b [4] were 0.00236 s⁻¹ and 0.015 s⁻¹, respectively. Also, the values for the kon with complement C3b [2] and with complement C3b [4] were 7420 M⁻¹ s⁻¹ and 6700 M⁻¹ s⁻¹, respectively.
With “complement factor B, wild type (32R) (from UniProt P00751 26-764) (natural protein)”, the dissociation constant Kd with complement C3b [1] worked out at 77.3 nM; with complement C3b [3], 610 nM; with complement C3b [4] it was 608 nM. The koff – broadly, the first-order rate constant of dissociation – with complement C3b [2] was 0.00247 s⁻¹; with complement C3b [4], 0.0088 s⁻¹. Moreover, the kon – broadly, the rate constant with which the complex forms – with complement C3b [2] turned out to be 32000 M⁻¹ s⁻¹; with complement C3b [4], 14500 M⁻¹ s⁻¹.
